This note sets out measurements from paper PMC2744670 (2009).

The assay addresses T1, CCR1 (Homo sapiens, UniProt P32246).
T1 chain: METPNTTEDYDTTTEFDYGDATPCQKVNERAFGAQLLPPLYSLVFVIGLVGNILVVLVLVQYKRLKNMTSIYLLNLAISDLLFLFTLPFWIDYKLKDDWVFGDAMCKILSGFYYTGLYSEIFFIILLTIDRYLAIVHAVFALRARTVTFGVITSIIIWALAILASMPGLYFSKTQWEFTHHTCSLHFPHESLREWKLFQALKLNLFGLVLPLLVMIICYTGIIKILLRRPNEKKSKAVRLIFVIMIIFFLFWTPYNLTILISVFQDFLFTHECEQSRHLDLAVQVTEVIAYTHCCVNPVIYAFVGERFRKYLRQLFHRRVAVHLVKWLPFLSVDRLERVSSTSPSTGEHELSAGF
As to the kind of experiment: competition binding with [125I]CCL3 on transfected COS-7 cells.

B1: U83A (protein)
chain: FICSSPDAELFSEKSRMSSSVLLGCLLCCMDWSAAVPGKTEPFRKLFDAIMIKKLKSCSAAYPSDLDEGSMCDMADASPTSLELGLSKLDKES
The term IC50 denotes the concentration that gives 50% inhibition. A higher IC50 goes with a need for much substance. B1 yielded an IC50 of 0.4 nM.
